Experimental data from patent US20200369764A1 (INNATE PHARMA, published 2020).

Key:
Human Siglec-7 (human) = Human Siglec-7 (human) (UniProt Q9Y286); assay: flow cytometry, fresh purified human NK cells (CD3-/CD56+), isotype control plot
Human Siglec-9 [1] = target: T1, Human Siglec-9 (human, UniProt Q9Y336 18-463); assay: as above
T1 construct: on transfected CHO cells, YTS Siglec-9* cells, or native on primary NK cells and moDC (see assay); also called huSiglec-9; CD329

Human Siglec-9 [2] = target: T1, Human Siglec-9; assay: flow cytometry titration on moDC, neuraminidase-treated against untreated
Method: moDC were desialylated for 2 hours with 25 mU neuraminidase (Roche Diagnostics).
Binding on moDCs and neuraminidase treated moDCs was tested in a titration experiment by flow cytometry. Cells were incubated 1h in Staining Buffer (SB) with primary antibodies at 10 μg/ml and a series of dilution of 1:10. They were washed two times with SB, then incubated 30 min with a Goat F(ab′)² Anti-Human IgG (Fc) PE (Jackson ImmunoResearch), and washed twice with SB.

T1 sequence (Q9Y336 18-463): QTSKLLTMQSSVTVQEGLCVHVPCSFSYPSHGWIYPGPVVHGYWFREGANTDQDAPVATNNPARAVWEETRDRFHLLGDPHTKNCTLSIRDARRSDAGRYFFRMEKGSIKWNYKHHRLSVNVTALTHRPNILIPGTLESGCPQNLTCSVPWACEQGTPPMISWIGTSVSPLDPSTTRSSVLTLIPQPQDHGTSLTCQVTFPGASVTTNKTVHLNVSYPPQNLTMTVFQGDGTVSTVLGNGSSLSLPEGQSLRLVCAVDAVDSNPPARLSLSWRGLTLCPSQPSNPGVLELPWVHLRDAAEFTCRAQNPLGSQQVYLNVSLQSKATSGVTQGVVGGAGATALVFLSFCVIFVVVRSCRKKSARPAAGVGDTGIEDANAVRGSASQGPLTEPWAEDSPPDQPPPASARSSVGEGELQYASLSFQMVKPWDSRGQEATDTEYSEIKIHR
Chain of Human Siglec-7 (human) (Q9Y286 19-467): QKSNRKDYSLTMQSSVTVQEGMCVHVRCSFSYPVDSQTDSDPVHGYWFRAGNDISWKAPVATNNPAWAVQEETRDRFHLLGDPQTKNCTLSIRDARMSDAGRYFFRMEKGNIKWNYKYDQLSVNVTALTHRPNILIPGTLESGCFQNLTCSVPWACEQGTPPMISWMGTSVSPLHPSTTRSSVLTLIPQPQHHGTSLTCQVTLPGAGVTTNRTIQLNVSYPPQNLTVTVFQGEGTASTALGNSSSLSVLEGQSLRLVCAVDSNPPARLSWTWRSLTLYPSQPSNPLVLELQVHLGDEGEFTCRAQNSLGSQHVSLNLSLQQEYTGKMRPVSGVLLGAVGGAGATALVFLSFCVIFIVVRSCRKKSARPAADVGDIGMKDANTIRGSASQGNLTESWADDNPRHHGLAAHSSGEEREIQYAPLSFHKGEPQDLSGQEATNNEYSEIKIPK

Isotype control - APC (antibody)
% of NK cells in Q1 (APC positive, PE negative) (Human Siglec-7 (human)): 0.975% | % of NK cells in Q2 (APC positive and PE positive) (Human Siglec-7 (human)): 0.34%

Isotype control - PE (antibody)
% of NK cells in Q2 (APC positive and PE positive) (Human Siglec-9 [1]): 0.34% | % of NK cells in Q3 (PE positive, APC negative) (Human Siglec-9 [1]): 2.54%

B1: mAbD (antibody, V domains shown)
VH: QIQLVQSGPELKKPGETVKISCKASGYTFTDYSMHWVKQAPGKGLKWMGWIITETGEPTYADDFRGRFAFSLETSANTAYLQINNLKNEDTATYFCARDFDGYWGQGTTLTVSS
VL: DILMTQSPASLSASVGETVTITCRASENIYSYLAWYQQKRGKSPQFLVYNAKTLTEGVPSRFRGSGSGTQFSLKINSLQPEDFGTYYCQHHYGFPWTFGGGTKLEIK
notes: chimeric human IgG1, heavy chain N297Q (Kabat EU numbering)
fold enhancement of EC50 on moDC after neuraminidase treatment (Human Siglec-9 [2]): 10 fold

B2: mAbC (antibody, V domains shown)
VH: QIQLVQSGPELKKPGETVKISCKASGYTFTNYEMNWVKEAPGKGLKWMGWINTYTGESTYADDFKGRFAFSLETSASTVYLQINNLKDEDVATYFCVRDDYGRSYGFAYWGQGTLVTVSA
VL: NIVLTQSPASLTVSLGQRANISCRASESVDSYGNSFMHWYQQKPGQPPKLLIYLASKLESGVPARFSGSGSRTDFTLTIDPVETDDAATYYCHQNNEDPPWTFGGGTKLEIK
notes: as for B1
fold enhancement of EC50 on moDC after neuraminidase treatment (Human Siglec-9 [2]): 10 fold

B3: mAbA (antibody, V domains shown)
VH: QVQLQQPGAELVKPGSPVKLSCKASYFTFTSYWMHWVRQRPGQGLEWIGEINPSNGHTNYNEKFESKATLTVDRSSSTAYMQLSSLTSEDSAVFYCANGVESYDFDDALDYWGQGTSVTVSS
VL: DIQMTQTTSSLSASLGDRVTISCRASQDINNYLNWYQQKPDGTIKLLIYYTSRLHSGVPSRFSGSGSGTDYSLTINNLEQEDIATYFCQQGNTLPFTFGGGTKLEIK
notes: as for B1
fold enhancement of EC50 on moDC after neuraminidase treatment (Human Siglec-9 [2]): 10 fold
